B1: MBP-MEILB2 (mouse MEILB2 22–338 with N-terminal MBP-tag) (domain or fragment, UniProt Q9D4G2 22-338, looked up)
chain: EEFVKVRKKDLERLTTEVMQIRDFLPRILNGELLESFQKLKMVEKNLERKEQELEQLIMDREHFKARLETAQADSGREKKEKLALRQQLNEAKQQLLQQAEYCTQMGAVTCTLLWGVSSSEEVVKTILGGDKALKFFNITGQTMESFVKSLDGDVKEVDSDENQFVFALAGIVTNVAAIACGREFLVNSSRVLLDTMLQLLGDLKPGQCTKLKVLMLMSLYNVSINSKGLKYITESPGFIPLLWWLLSDPDAEVCLHTLRLIQSVVLEPDVFSKVASELQSSLPLQRILAMSKSRNSHLQSAAQELLEDLRALDCNV
notes: MEILB2 (HSF2BP), mouse, residues 22-338; also called MEILB2 with N-terminal MBP-tag; source: E. coli BL21 (DE3), purified in complex; not shown: MBP, N-terminal, kept
B2: MEILB2 (mouse MEILB2 amino-acids 22–338, the full structured region) (domain or fragment, UniProt Q9D4G2 22-338, looked up)
chain: B1 chain
notes: MEILB2 (HSF2BP), mouse, residues 22-338: α-helical region (α1, α2) and C-terminal ARM domain; the N-terminal 21 residues removed; also called HSF2BP; source: E. coli BL21 (DE3), purified in complex (Ni-NTA, amylose, ion exchange, TEV cleavage, SEC); not shown: His6-MBP (pMAT11) or MBP (pRSF-Duet1), N-terminal, cleaved
B3: MEILB2 K26E (mouse MEILB2 22–338) (domain or fragment, UniProt Q9D4G2 22-338, looked up)
chain: B1 chain with K5E
notes: MEILB2 (HSF2BP), mouse, residues 22-338 with K26E; source: E. coli BL21 (DE3), purified in complex (Ni-NTA, amylose, ion exchange, TEV cleavage, SEC); not shown: His6-MBP (pMAT11) or MBP (pRSF-Duet1), N-terminal, cleaved
B4: BRCA2MBD (mouse BRCA2 amino-acids 2232–2283, MEILB2-binding domain) (domain or fragment, UniProt P97929 2232-2283, looked up)
chain: PIKRSLLNEFDRIIESKGKSLTPSKSTPDGTVKDRSLFTHHMSLEPVTCGPF
notes: source: E. coli BL21 (DE3), purified in complex with MEILB2 (Ni-NTA, amylose, ion exchange, TEV cleavage, SEC); not shown: His6-MBP (pMAT11) or MBP (pRSF-Duet1), N-terminal, cleaved
B5: MBP-BRCA2MBD (mouse BRCA2 2232–2283 with N-terminal MBP-tag) (domain or fragment, UniProt P97929 2232-2283, looked up)
chain: B4 chain
notes: also called BRCA2MBD with N-terminal MBP-tag; source: E. coli BL21 (DE3), purified in complex; not shown: MBP, N-terminal, kept
B6: MEILB2α (mouse MEILB2 amino-acids 22–81) (domain or fragment, UniProt Q9D4G2 22-81, looked up)
chain: EEFVKVRKKDLERLTTEVMQIRDFLPRILNGELLESFQKLKMVEKNLERKEQELEQLIMD
notes: MEILB2 (meiotic localiser of BRCA2; HSF2BP), mouse, residues 22-81: the α1 helix and the beginning of the α2 helix; Two copies stand in the 2:2 core complex with BRME1; also called HSF2BP; source: E. coli BL21 (DE3), purified with BRME1 (Ni-NTA, amylose, ion exchange, TEV cleavage, SEC); not shown: His6-MBP (pMAT11) or MBP (pRSF-Duet1), N-terminal, cleaved
B7: BRME1MBD (mouse BRME1 amino-acids 540–578) (domain or fragment, UniProt Q6DIA7 540-578, looked up)
chain: RMQDATDTVRGLVVELSGLNRLIMSTHRDLEAFKRRKTK
notes: source: E. coli BL21 (DE3), purified in complex with MEILB2 (Ni-NTA, amylose, ion exchange, TEV cleavage, SEC); not shown: His6, N-terminal, cleaved
B8: BRME1MBD ΔRKTK (mouse BRME1 amino-acids 540–574) (domain or fragment, UniProt Q6DIA7 540-574, looked up)
chain: RMQDATDTVRGLVVELSGLNRLIMSTHRDLEAFKR
notes: BRME1 (BRCA2 and MEILB2-associating protein 1); The crystallography methods give 540–574 for the crystallised BRME1 chain, the results give 540–578; also called BRME1 540–574; BRME1MBD (in the crystallography methods); source: E. coli BL21 (DE3), purified with MEILB2 (Ni-NTA, amylose, ion exchange, TEV cleavage, SEC); not shown: His6, N-terminal, cleaved

Where a chain is given by its changes, count along the chain named. In names and notes the source's numbering stands.

Series [1] deals with the molecule itself. Nature of the series: SEC-MALS; BRCA2MBD–MEILB2–BRME1MBD ternary complex at >5 mg/ml, Superdex 200 Increase 10/300 GL, 20 mM HEPES pH 7.5, 500 mM KCl, 2 mM DTT. In general terms: SEC sorts molecules by how far they enter the pores of the column.
Series [2] concerns the molecule itself. Briefly: not stated; BRCA2MBD–MEILB2 in the absence of BRME1MBD, in solution; data in Supplementary Fig. 14.
Series [3] deals with the molecule itself. Nature of the series: SEC-MALS; MEILB2–BRME1MBD complex at >5 mg/ml, Superdex 200 Increase 10/300 GL, 20 mM HEPES pH 7.5, 150 mM KCl, 2 mM DTT.
Series [4] deals with the molecule itself. Nature of the series: not stated; BRCA2MBD–MEILB2–BRME1MBD complex with MEILB2 K26E; data in Supplementary Figs. 2 and 12c.
Series [5] addresses B2. Briefly: not stated; BRCA2MBD–MEILB2 in the absence of BRME1MBD, in solution; data in Supplementary Fig. 14. Conditions: both partners purified.
The target of series [6] is B3. Briefly: not stated; BRCA2MBD–MEILB2–BRME1MBD complex with MEILB2 K26E; data in Supplementary Figs. 2 and 12c. Conditions: both partners purified.
Series [7] has as its target B2. Briefly: SEC-MALS; BRCA2MBD–MEILB2–BRME1MBD ternary complex at >5 mg/ml, Superdex 200 Increase 10/300 GL, 20 mM HEPES pH 7.5, 500 mM KCl, 2 mM DTT. Particulars: both partners purified.
The target in series [8] is B1. The series is described as above. Conditions: both partners purified.
Series [9] concerns the molecule itself. Nature of the series: crystal structure; MEILB2α–BRME1MBD (22–81; 540–574) 2:2 core complex; crystals grown on ice in 20 mM HEPES pH 7.5, 150 mM KCl; 1.50 Å; one 2:2 complex in the asymmetric unit.
For series [10], the target named is B2. Briefly: SEC-MALS; MEILB2–BRME1MBD complex at >5 mg/ml, Superdex 200 Increase 10/300 GL, 20 mM HEPES pH 7.5, 150 mM KCl, 2 mM DTT. Conditions: both partners purified.
The target of series [11] is B6. Briefly: crystal structure; MEILB2α–BRME1MBD (22–81; 540–574) 2:2 core complex; crystals grown on ice in 20 mM HEPES pH 7.5, 150 mM KCl; 1.50 Å; one 2:2 complex in the asymmetric unit. Conditions: both partners purified.

Turning to B1, in [1], the stoichiometry N (as a rule, a count of units in the complex or per binding partner) was 4 MEILB2 chains in the 2:4:4 complex (with BRCA2MBD). For B2, the figures for the “stoichiometry N” value in [2], in [3] and in series [1] were 8 MEILB2 chains in the 4:8 oligomer (with BRCA2MBD), 2 MEILB2 chains in the 2:2 complex and 4 MEILB2 chains in the 2:4:4 complex (with BRCA2MBD), respectively.

Regarding B3, the “stoichiometry N” value in series [4] is 4 MEILB2 chains in the 2:4:4 complex (with BRCA2MBD). As to B4, the “stoichiometry N” value in series [5] is 0.5 BRCA2MBD per MEILB2 (4:8); in [6], 0.5 BRCA2MBD per MEILB2 (2:4 in the 2:4:4 complex); in series [7], 0.5 BRCA2MBD per MEILB2 (2:4 in the 2:4:4 complex). Turning to B5, the “stoichiometry N” value in [8] was 0.5 BRCA2MBD per MEILB2 (2:4 in the 2:4:4 complex).

Consider B6, for which the binding result in series [9] is reported as “binds”.

B7: the “stoichiometry N” value was 1 BRME1MBD per MEILB2 (4:4 in the 2:4:4 complex) in [6], 1 BRME1MBD per MEILB2 (2:2) in series [10], 1 BRME1MBD per MEILB2 (4:4 in the 2:4:4 complex) in series [8] and 1 BRME1MBD per MEILB2 (4:4 in the 2:4:4 complex) in [7].

In the case of B8, in series [11], the binding result is given as “binds”.
